10 substances from US20240173421A1 can be followed below.

In experiment [1] the target is Human V158 FcγRIIIa (Example 8) (human) (UniProt P08637). The experiment is described as follows: BLI, receptor on SAX sensor. Background: Biolayer interferometry detects binding as a change in optical thickness at a sensor tip.
Experiment [2] addresses Human FcγRI (Example 8) (human) (UniProt P12314). The experiment is described as follows: BLI, receptor on SAX sensor.
The target of experiment [3] is Human H131 FcγRIIa (Example 8) (human) (UniProt P12318). Put plainly: BLI, receptor on SAX sensor.
For experiment [4], the target named is Human F158 FcγRIIIa (Example 8) (human) (UniProt P08637). Put plainly: BLI, receptor on SAX sensor.
The target of experiment [5] is CD16a (FcγRIIIa) on Jurkat NFAT reporter cells (UniProt P08637). Put plainly: cell-based or functional assay.
Experiment [6] has as its target Human V158 FcγRIIIa (Example 8) (human) (UniProt P08637). The experiment is described as follows: BLI; ratio to KD of the unconjugated antibody.
Experiment [7] deals with Human FcγRI (Example 8) (human) (UniProt P12314). Put plainly: BLI; ratio to KD of the unconjugated antibody.
Experiment [8] has as its target Human F158 FcγRIIIa (Example 8) (human) (UniProt P08637). The experiment is described as follows: BLI; ratio to KD of the unconjugated antibody.
Experiment [9] addresses CD16a (FcγRIIIa) on Jurkat NFAT reporter cells (UniProt P08637).
For experiment [10] the target is unchanged. This is another data set of the same source.

Where two headings read alike, the source gives them in different places. Some results are limits rather than exact numbers.

CD16a (FcγRIIIa) on Jurkat NFAT reporter cells, sequence (P08637 17-254 limits assumed): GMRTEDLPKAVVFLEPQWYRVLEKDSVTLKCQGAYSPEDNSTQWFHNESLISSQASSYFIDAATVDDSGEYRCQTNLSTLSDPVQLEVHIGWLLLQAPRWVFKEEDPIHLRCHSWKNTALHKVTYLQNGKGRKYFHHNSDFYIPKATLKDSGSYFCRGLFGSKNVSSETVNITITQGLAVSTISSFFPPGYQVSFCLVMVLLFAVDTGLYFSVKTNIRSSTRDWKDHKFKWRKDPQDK

In general, Kd refers to the concentration at which binding is half-saturated. What is called koff is a measure of how fast the partners let go of each other. High values mean a short-lived complex, low ones a long-lived complex. For orientation: kon means the second-order rate constant of association. Turning to Anti-HER2 S239D A330L I332E (antibody), the Kd in experiment [1] was determined as 37 nM; in [2] it was 0.12 nM; in experiment [3], 2100 nM; in [4], 95 nM. In addition, the koff in experiment [1] was determined as 0.028 s⁻¹; in experiment [2], 6.8e-05 s⁻¹; in experiment [3] it was 0.38 s⁻¹; in [4], 0.049 s⁻¹. Moreover, the kon in experiment [1] turned out to be 750000 M⁻¹ s⁻¹; in experiment [2], 590000 M⁻¹ s⁻¹; in experiment [3], 190000 M⁻¹ s⁻¹; in experiment [4], 520000 M⁻¹ s⁻¹. Moreover, the CD16a NFAT EC50 in [5] amounted to 0.7 ng/mL.
Take “Anti-HER2 S239D A330L I332E-mcPEG12(10) (antibody)”: the Kd in experiment [1] came to 2900 nM; in experiment [2], 1.2 nM; in [4] it was 3800 nM. For the same substance, the off-rate constant (koff) is 0.085 s⁻¹ in experiment [1], 0.00011 s⁻¹ in experiment [2] and 0.077 s⁻¹ in experiment [4]. The figures for the kon in experiment [1], in [2] and in [4] were 29000 M⁻¹ s⁻¹, 95000 M⁻¹ s⁻¹ and 20000 M⁻¹ s⁻¹, respectively. The substance further gave a CD16a NFAT EC50 in experiment [5] of 83.5 ng/mL. For the same substance, the KD Fold change in experiment [6] stood at 78.4 fold; in experiment [7] it was 10 fold; in experiment [8], 40 fold.
In turn, Anti-HER2 S239D I332E (antibody) registered a Kd in [2] of 0.1 nM. This substance came in with a CD16a NFAT EC50 in experiment [5] of 1.5 ng/mL.
For the substance “Anti-HER2 S239D I332E-mcPEG12(8) (antibody)”, the Kd in [2] was 1 nM. This lies in the single-digit nanomolar range.
Consider “Anti-HER2 S239D I332E-mcPEG12(10) (antibody)”, for which the CD16a NFAT EC50 in experiment [5] amounted to 71.2 ng/mL.
As to Anti-HER2-mcPEG12(8) (antibody), in experiment [2], the dissociation constant (Kd) stood at 9 nM. Moreover, the CD16a NFAT EC50 in [5] was over 2000 ng/mL.
Take obinituzumab-AF (antibody): the EC50 (read off the curve), FcγRIIIa NFAT reporter assay in experiment [9] worked out at 0.7 ng/mL.
obinituzumab-WT (antibody) came in with an EC50 (read off the curve), FcγRIIIa NFAT reporter assay in experiment [9] of 7 ng/mL.
rituximab-AF (antibody): the EC50 (read off the curve), FcγRIIIa NFAT reporter assay in [10] amounted to 1 ng/mL.
rituximab-WT (antibody) displayed an EC50 (read off the curve), FcγRIIIa NFAT reporter assay in experiment [10] of 8 ng/mL.
